In ChEMBL document CHEMBL1250451, “Mechanistic insights into a Ca2+-dependent family of alpha-mannosidases in a human gut symbiont” (Nat Chem Biol, 2010):

Key:
Assay type in all cases: protein assay; call rule not given here
[1] = substrate: O=[N+]([O-])c1ccc(O[C@H]2O[C@H](CO)[C@@H](O)[C@H](O)[C@@H]2O)cc1; test: (§1) Activity of Bacteroides thetaiotaomicron GH92 alpha-mannosidase 3990 E533Q mutant assessed as as mannose release after 16 hrs by HPLC relative to wild type enzyme
[2] = substrate: OC[C@H]1O[C@H](O[C@H]2[C@@H](O)[C@H](O)[C@@H](CO)O[C@@H]2O)[C@@H](O)[C@@H](O)[C@@H]1O; test: as §1
[3] = substrate: O=[N+]([O-])c1ccc(O[C@H]2O[C@H](CO)[C@@H](O)[C@H](O)[C@@H]2O)cc1; test: (§2) Ratio of Kcat to Km for Bacteroides thetaiotaomicron GH92 alpha-mannosidase 3990 E533Q mutant assessed as as mannose release after 16 hrs by HPLC relative to wild type enzyme
[4] = substrate: OC[C@H]1O[C@H](O[C@H]2[C@@H](O)[C@H](O)[C@@H](CO)O[C@@H]2O)[C@@H](O)[C@@H](O)[C@@H]1O; test: as §2
[5] = substrate: O=[N+]([O-])c1ccc(O[C@H]2O[C@H](CO)[C@@H](O)[C@H](O)[C@@H]2O)c([N+](=O)[O-])c1; test: as §2
[6] = substrate: O=[N+]([O-])c1ccc(O[C@H]2O[C@H](CO)[C@@H](O)[C@H](O)[C@@H]2O)cc1; test: (§3) Ratio of Kcat to Km for Bacteroides thetaiotaomicron GH92 alpha-mannosidase 3990 D642A mutant assessed as as mannose release after 16 hrs by HPLC relative to wild type enzyme
[7] = substrate: OC[C@H]1O[C@H](O[C@H]2[C@@H](O)[C@H](O)[C@@H](CO)O[C@@H]2O)[C@@H](O)[C@@H](O)[C@@H]1O; test: as §3
[8] = substrate: O=[N+]([O-])c1ccc(O[C@H]2O[C@H](CO)[C@@H](O)[C@H](O)[C@@H]2O)c([N+](=O)[O-])c1; test: as §3
[9] = substrate: O=[N+]([O-])c1ccc(O[C@H]2O[C@H](CO)[C@@H](O)[C@H](O)[C@@H]2O)cc1; test: (§4) Activity of Bacteroides thetaiotaomicron GH92 alpha-mannosidase 3990 D642A mutant assessed as as mannose release after 16 hrs by HPLC relative to wild type enzyme
[10] = substrate: OC[C@H]1O[C@H](O[C@H]2[C@@H](O)[C@H](O)[C@@H](CO)O[C@@H]2O)[C@@H](O)[C@@H](O)[C@@H]1O; test: as §4
[11] = substrate: O=[N+]([O-])c1ccc(O[C@H]2O[C@H](CO)[C@@H](O)[C@H](O)[C@@H]2O)cc1; test: (§5) Ratio of Kcat to Km for Bacteroides thetaiotaomicron GH92 alpha-mannosidase 3990 D644N mutant assessed as as mannose release after 16 hrs by HPLC relative to wild type enzyme
[12] = substrate: OC[C@H]1O[C@H](O[C@H]2[C@@H](O)[C@H](O)[C@@H](CO)O[C@@H]2O)[C@@H](O)[C@@H](O)[C@@H]1O; test: as §5
[13] = substrate: O=[N+]([O-])c1ccc(O[C@H]2O[C@H](CO)[C@@H](O)[C@H](O)[C@@H]2O)c([N+](=O)[O-])c1; test: as §5
[14] = substrate: O=[N+]([O-])c1ccc(O[C@H]2O[C@H](CO)[C@@H](O)[C@H](O)[C@@H]2O)cc1; test: (§6) Activity of Bacteroides thetaiotaomicron GH92 alpha-mannosidase 3990 D644N mutant assessed as as mannose release after 16 hrs by HPLC relative to wild type enzyme
[15] = substrate: OC[C@H]1O[C@H](O[C@H]2[C@@H](O)[C@H](O)[C@@H](CO)O[C@@H]2O)[C@@H](O)[C@@H](O)[C@@H]1O; test: as §6

B1: Alpha-1,2-mannosidase (BT_3990) (Bacteroides thetaiotaomicron), Q8A0N1 E533Q (protein)
chain: MKRLLLIACILNCTLLSQAKDWTQYVNPLMGSQSTFELSTGNTYPAIARPWGMNFWTPQTGKMGDGWQYTYTANKIRGFKQTHQPSPWINDYGQFSIMPIVGQPVFDEEKRASWFAHKGEVATPYYYKVYLAEHDIVTEMTPTERAVLFRFTFPENDHSYVVVDAFDKGSYIKIIPEENKIIGYTTRNSGGVPENFKNYFIIEFDKPFTYKATVENGNLQENVAEQTTDHAGAIIGFKTRKGEQVNARIASSFISFEQAAANMNELGKDNIEQLAQKGKDAWNQVLGKIEVEGGNLDQYRTFYSCLYRSLLFPRKFYELDANGQPIHYSPYNGQVLPGYMFTDTGFWDTFRCLFPLLNLMYPSVNKEMQEGLINTYLESGFFPEWASPGHRGCMVGNNSASILVDAYMKGVKVDDIKTLYEGLIHGTENVHPEVSSTGRLGYEYYNKLGYVPYDVKINENAARTLEYAYDDWCIYRLAKELKRPKKEISLFAKRAMNYKNLFDKESKLMRGRNEDGTFQSPFSPLKWGDAFTQGNSWHYTWSVFHDPQGLIDLMGGKEMFVTMMDSVFAVPPIFDDSYYGQVIHEIREMTVMNMGNYAHGNQPIQHMIYLYDYAGQPWKAQYWLRQVMDRMYTPGPDGYCGDEDNGQTSAWYVFSALGFYPVCPGTDEYVMGTPLFKKATLHFENGNSLVIDAPNNSTENFYIDSMSFNGADHTKNYLRHEDLFKGGTIKVDMSNRPNLNRGTKEEDMPYSFSKE
- Km [1]: 10000 µM
- kcat [1]: 0.147 s⁻¹
- Km [2]: 960 µM
- kcat [2]: 0.000233 s⁻¹
- kcat/Km [3]: 14.3 M⁻¹ s⁻¹
- kcat/Km [4]: 0.25 M⁻¹ s⁻¹
- kcat/Km [5]: 10300 M⁻¹ s⁻¹

B2: Alpha-1,2-mannosidase (BT_3990) (Bacteroides thetaiotaomicron), Q8A0N1 D642A (protein)
chain: MKRLLLIACILNCTLLSQAKDWTQYVNPLMGSQSTFELSTGNTYPAIARPWGMNFWTPQTGKMGDGWQYTYTANKIRGFKQTHQPSPWINDYGQFSIMPIVGQPVFDEEKRASWFAHKGEVATPYYYKVYLAEHDIVTEMTPTERAVLFRFTFPENDHSYVVVDAFDKGSYIKIIPEENKIIGYTTRNSGGVPENFKNYFIIEFDKPFTYKATVENGNLQENVAEQTTDHAGAIIGFKTRKGEQVNARIASSFISFEQAAANMNELGKDNIEQLAQKGKDAWNQVLGKIEVEGGNLDQYRTFYSCLYRSLLFPRKFYELDANGQPIHYSPYNGQVLPGYMFTDTGFWDTFRCLFPLLNLMYPSVNKEMQEGLINTYLESGFFPEWASPGHRGCMVGNNSASILVDAYMKGVKVDDIKTLYEGLIHGTENVHPEVSSTGRLGYEYYNKLGYVPYDVKINENAARTLEYAYDDWCIYRLAKELKRPKKEISLFAKRAMNYKNLFDKESKLMRGRNEDGTFQSPFSPLKWGDAFTEGNSWHYTWSVFHDPQGLIDLMGGKEMFVTMMDSVFAVPPIFDDSYYGQVIHEIREMTVMNMGNYAHGNQPIQHMIYLYDYAGQPWKAQYWLRQVMDRMYTPGPDGYCGAEDNGQTSAWYVFSALGFYPVCPGTDEYVMGTPLFKKATLHFENGNSLVIDAPNNSTENFYIDSMSFNGADHTKNYLRHEDLFKGGTIKVDMSNRPNLNRGTKEEDMPYSFSKE
- kcat/Km [6]: Not Active
- kcat/Km [7]: 0.783 M⁻¹ s⁻¹
- kcat/Km [8]: 0.383 M⁻¹ s⁻¹
- Km [9]: Not Active
- kcat [9]: Not Active
- Km [10]: 690 µM
- kcat [10]: 0.000533 s⁻¹

B3: Alpha-1,2-mannosidase (BT_3990) (Bacteroides thetaiotaomicron), Q8A0N1 D644N (protein)
chain: MKRLLLIACILNCTLLSQAKDWTQYVNPLMGSQSTFELSTGNTYPAIARPWGMNFWTPQTGKMGDGWQYTYTANKIRGFKQTHQPSPWINDYGQFSIMPIVGQPVFDEEKRASWFAHKGEVATPYYYKVYLAEHDIVTEMTPTERAVLFRFTFPENDHSYVVVDAFDKGSYIKIIPEENKIIGYTTRNSGGVPENFKNYFIIEFDKPFTYKATVENGNLQENVAEQTTDHAGAIIGFKTRKGEQVNARIASSFISFEQAAANMNELGKDNIEQLAQKGKDAWNQVLGKIEVEGGNLDQYRTFYSCLYRSLLFPRKFYELDANGQPIHYSPYNGQVLPGYMFTDTGFWDTFRCLFPLLNLMYPSVNKEMQEGLINTYLESGFFPEWASPGHRGCMVGNNSASILVDAYMKGVKVDDIKTLYEGLIHGTENVHPEVSSTGRLGYEYYNKLGYVPYDVKINENAARTLEYAYDDWCIYRLAKELKRPKKEISLFAKRAMNYKNLFDKESKLMRGRNEDGTFQSPFSPLKWGDAFTEGNSWHYTWSVFHDPQGLIDLMGGKEMFVTMMDSVFAVPPIFDDSYYGQVIHEIREMTVMNMGNYAHGNQPIQHMIYLYDYAGQPWKAQYWLRQVMDRMYTPGPDGYCGDENNGQTSAWYVFSALGFYPVCPGTDEYVMGTPLFKKATLHFENGNSLVIDAPNNSTENFYIDSMSFNGADHTKNYLRHEDLFKGGTIKVDMSNRPNLNRGTKEEDMPYSFSKE
- kcat/Km [11]: Not Active
- kcat/Km [12]: 0.533 M⁻¹ s⁻¹
- kcat/Km [13]: 0.567 M⁻¹ s⁻¹
- Km [14]: Not Active
- kcat [14]: Not Active
- Km [15]: 720 µM
- kcat [15]: 0.000383 s⁻¹
